Measured values taken from patent US20220088148A1 (HANMI PHARM, published 2022).
Bridges are numbered along the chain shown (N, C = ends). Where no end group is shown, it is not given here. [ ]: non-standard residue; d: D form. The star is where a group is joined. Acetyl(2-(4-imidazolyl)) = O=C(Cc1c[nH]cn1)*; Aib = CC(C)(N)C(=O)O

T1: human GIP receptor (human, UniProt P48546 22-466)
T1 sequence (looked up): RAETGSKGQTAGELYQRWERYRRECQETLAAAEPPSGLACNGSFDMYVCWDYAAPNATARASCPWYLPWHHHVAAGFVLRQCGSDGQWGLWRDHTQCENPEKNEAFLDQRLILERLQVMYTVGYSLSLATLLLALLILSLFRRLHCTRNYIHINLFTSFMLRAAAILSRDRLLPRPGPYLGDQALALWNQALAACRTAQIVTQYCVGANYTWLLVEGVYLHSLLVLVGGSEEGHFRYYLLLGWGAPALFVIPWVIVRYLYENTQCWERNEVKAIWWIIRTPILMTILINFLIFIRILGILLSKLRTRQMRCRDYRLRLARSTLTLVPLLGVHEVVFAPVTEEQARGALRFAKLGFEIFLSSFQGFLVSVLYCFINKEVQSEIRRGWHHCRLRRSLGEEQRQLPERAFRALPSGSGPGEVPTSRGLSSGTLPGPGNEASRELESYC


Key:
Assay in all cases: cell-based or functional assay
human GLP-1 receptor = human GLP-1 receptor (human, UniProt P43220 24-463)
human GCG receptor = human GCG receptor (human, UniProt P47871 26-477)
human GCG receptor, sequence (P47871 26-477): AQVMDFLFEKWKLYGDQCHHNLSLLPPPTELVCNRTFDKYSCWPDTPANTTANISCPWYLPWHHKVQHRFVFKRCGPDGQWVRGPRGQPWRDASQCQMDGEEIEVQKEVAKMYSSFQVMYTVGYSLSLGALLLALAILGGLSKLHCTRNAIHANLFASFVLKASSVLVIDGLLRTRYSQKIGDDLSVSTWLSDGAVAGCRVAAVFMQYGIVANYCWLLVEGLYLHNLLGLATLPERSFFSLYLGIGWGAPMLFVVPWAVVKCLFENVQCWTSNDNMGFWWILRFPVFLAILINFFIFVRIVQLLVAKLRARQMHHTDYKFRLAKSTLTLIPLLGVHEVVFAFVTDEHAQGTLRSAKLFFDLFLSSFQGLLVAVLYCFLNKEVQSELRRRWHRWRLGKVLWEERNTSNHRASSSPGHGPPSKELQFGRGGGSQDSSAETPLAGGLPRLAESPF

human GIP receptor = target: T1, human GIP receptor

| Binder | In vitro activity (%) vs. GLP-1, cAMP EC50 (human GLP-1 receptor) | In vitro activity (%) vs. Glucagon, cAMP EC50 (human GCG receptor) | In vitro activity (%) vs. GIP, cAMP EC50 (human GIP receptor) |
| --- | --- | --- | --- |
| Y[Aib]QGTFTSDYSKALDEKAAKEFVQWLLDQHPSSGQPPPSC (bridge 16-20) [triple agonist of SEQ ID NO: 100] | 42.2% | 12.7% | 118% |
| Y[Aib]QGTFTSDYSKALDEKAAKEFVNWLLDHHPSSGQPPPSC (bridge 16-20; ends not checked) [triple agonist of SEQ ID NO: 98] | 28.1% | 8.2% | 47.1% |
| Y[Aib]QGTFTSDYSKALDEKAAKEFVNWLLDQHPSSGQPPPSC (bridge 16-20) [triple agonist of SEQ ID NO: 101] | 23.2% | 13.9% | 40.1% |
| H[Aib]QGTFTSDYSKYLDEKAAKEFVQWLLNTC (bridge 16-20) [triple agonist of SEQ ID NO: 29] | 38.5% | 6% | < 0.1% |
| H[Aib]QGTFTSDYSKYLDEKAQKEFVQWLLDTC (bridge 16-20) [triple agonist of SEQ ID NO: 30] | 142% | 0.7% | 0.8% |
| [Acetyl(2-(4-imidazolyl))]GQGTFTSDLSKQMDSERAREFIEWLKNTGPSSGAPPPSHG [triple agonist of SEQ ID NO: 18] | < 0.1% | < 0.1% | < 0.1% |
| [Acetyl(2-(4-imidazolyl))]GQGTFTSDLSIQYDSEHQRDFIEWLKDTGPSSGAPPPSHG [triple agonist of SEQ ID NO: 19] | < 0.1% | < 0.1% | < 0.1% |
| [Acetyl(2-(4-imidazolyl))]GQGTFTSDLSIQYEEEAQQDFVEWLKDTGPSSGAPPPSHG [triple agonist of SEQ ID NO: 20] | < 0.1% | < 0.1% | < 0.1% |
| Y[Aib]QGTFTSDYSKYLDECRAKEFVQWLLAQKGKKNDWKHNIT (bridge 16-20) [triple agonist of SEQ ID NO: 23] | 4.01% | 9.3% | < 0.1% |
| Y[Aib]QGTFTSDYSKCLDEKRAKEFVQWLLDHHPSSGQPPPS (bridge 16-20) [triple agonist of SEQ ID NO: 22] | 20.1% | 140% | 59.7% |
| [Acetyl(2-(4-imidazolyl))]GQGTFTSDLSKQMDSEAQQLFIEWLKNGGPSSGAPPPSHG [triple agonist of SEQ ID NO: 16] | 2.1% | < 0.1% | < 0.1% |
| Y[Aib]QGTFTSDYSKYLDECRAKEFVQWLLDHHPSSGQPPPS (bridge 16-20) [triple agonist of SEQ ID NO: 21] | 17.8% | 267% | 22.7% |
| [Acetyl(2-(4-imidazolyl))]GQGTFTSDLSKQMDEERAREFIEWLLAQKPSSGAPPPSHG [triple agonist of SEQ ID NO: 17] | 0.2% | < 0.1% | < 0.1% |
| Y[Aib]QGTFTSDYSKALDEKAAKDFVNWLLDHHPSSGQPPPSC (bridge 16-20; ends not checked) [triple agonist of SEQ ID NO: 99] | 20.9% | 14.9% | 57.7% |
| [Acetyl(2-(4-imidazolyl))]GEGTFISDYSIQLDEIAVQDFVEWLLAQKPSSGAPPPSHG [triple agonist of SEQ ID NO: 13] | < 0.1% | < 0.1% | < 0.1% |
| Y[Aib]QGTFTSDYSKALDEKAAKDFVNWLLDQHPSSGQPPPSC (bridge 16-20; ends not checked) [triple agonist of SEQ ID NO: 102] | 23.3% | 29.5% | 58% |
| Y[Aib]QGTFTSDYSKYLDEKRAKEFVQWLLDCHPSSGQPPPS (bridge 16-20; ends not checked) [triple agonist of SEQ ID NO: 97] | 10.5% | 62.8% | 2.6% |
| [Acetyl(2-(4-imidazolyl))]GEGTFTSDLSKYLDSRRQQLFVQWLKAGGPSSGAPPPSHG [triple agonist of SEQ ID NO: 11] | 1.4% | < 0.1% | < 0.1% |
| H[Aib]QGTFTSDVSSYLLGQAAKQFIAWLVKGGGPSSGAPPPSC [triple agonist of SEQ ID NO: 3] | 1.8% | < 0.1% | < 0.1% |
| [Acetyl(2-(4-imidazolyl))]GQGTFTSDYSIQLDEIAVRDFVEWLKNGGPSSGAPPPSHG [triple agonist of SEQ ID NO: 14] | 28% | < 0.1% | < 0.1% |
| H[Aib]QGTFTSDYSKYLDEKACKEFVQWLLAQ (bridge 16-20) [triple agonist of SEQ ID NO: 31] | 135% | 2.2% | 2.4% |
| H[Aib]QGTFTSDVSSYLDGQAQKEFIAWLVKGC [triple agonist of SEQ ID NO: 2] | 5.9% | < 0.1% | < 0.1% |
| H[Aib]QGTFTSDYSKYLDEKRAQEFVCWLLAQKGKKNDWKHNIT [triple agonist of SEQ ID NO: 28] | 17.2% | 1.6% | < 0.1% |
| H[Aib]QGTFTSDYSIAMDEIHQKDFVNWLLAQKC (bridge 16-20) [triple agonist of SEQ ID NO: 33] | 24.5% | < 0.1% | 10.4% |
| [Acetyl(2-(4-imidazolyl))]GEGTFISDLSKYMDEQAVQLFVEWLMAGGPSSGAPPPSHG [triple agonist of SEQ ID NO: 12] | 0.4% | < 0.1% | < 0.1% |
